Reference: paper PMC4075990

Tests used:
purified protein [1] = substrate: N#Cc1cccnc1; test: purified protein; settings: 0.05 M potassium phosphate pH 6.5, 10 nM enzyme, 0.05-0.75 M substrate
purified protein [2] = substrate: N#Cc1cn([C@@H]2O[C@H](CO)[C@@H](O)[C@H]2O)c2ncnc(N)c12; test: purified protein; settings: 0.05 M potassium phosphate pH 6.5, 10 nM enzyme, 0.1-2.5 mM substrate

B1: ToyJKL (toyocamycin nitrile hydratase, TNHase) (Streptomyces rimosus) (protein)
chain 1: MSTEHVSLPIAARVRRLEERVIAAGLVTDEQLDTILEHNLSRATPFNGARLVARAWTSPDFRDLLLGEPAAALREMGLDGLLADDEHLRVVANTPTVHNVVVCTLCSCYPVLLLGPSPSWYKSDAYRARVVREPRAVLAEFGTVLPAEVDVRVWDASAEARYMVLPRRPAGTEGLDEEGLAARVTRAGLIGTAPV
chain 2: MGERRFSVGDPVRVRPADPPHHTRVPRYVRGHLGHVVTVQPPCPLPDDVARRRDPFRVLPVYTVRFAARDLWGSGTHLVLIDLWECYLEPAAETARGLGGETS
chain 3: MARLNDIGGTFGYGSIPMDGAEPPHPWRHDWEARVFAVLIGLAMAGVWTASELRDAEERVPPNDYLAASYYERVLMGMELLLDEKGIPSRG
For B1, which Km (purified protein [1]) is on record?
Its Km is 99 ± 2 mM.

What about the kcat (purified protein [1]) of the same protein?
The kcat was 79 ± 5 s⁻¹.

What about the kcat/Km (purified protein [1]) of the same protein?
Its kcat/Km is 800 M⁻¹ s⁻¹.

What about the Km (purified protein [2]) of the same protein?
The Km was 2.8 × 10^–2 ± 1 × 10^–3 mM.

And the kcat (purified protein [2])?
The kcat was 159 ± 2 s⁻¹.

And the kcat/Km (purified protein [2])?
Its kcat/Km is 5.7e+06 M⁻¹ s⁻¹.
